Biological target: cleavage stimulation factor (CstF): CstF77-CstF50-CstF64(1-195) (human) (UniProt Q12996)
Assay: SEC

mammalian polyadenylation specificity factor (mPSF): CPSF160-WDR33(1-572)-CPSF30-Fip1(1-243), Q10570 1-1443; Q9C0J8 1-572; O95639-2 1-244; Q6UN15 1-243
stoichiometry N: 1
